In assay [1] the target is T1, Orai1 plasma membrane Ca^2+ channel (endogenous, HEK293T cells and ARDS patient immune cells) (UniProt Q96D31 1-301, limits assumed). Nature of the assay: cell-based or functional assay.
Assay [2] deals with T1, Orai1 plasma membrane Ca^2+ channel …. Nature of the assay: cell-based or functional assay. This is another data set of the same source.
Assay [3] deals with T2, Orai1 extracellular peptide 1 (OP1).
T2 peptide: EVQLDADHDYPPGL
Nature of the assay: dynamic light scattering, Z-average increased. The source says:
(§1) Endogenous Orai1/store operated Ca²⁺ influx have been extensively studied in HEK293T cells, so this cell type was used to understand ELD607-Orai1 interactions. […] Thapsigargin is a SERCA pump inhibitor that prevents uptake of cytosolic Ca²⁺ into the endoplasmic reticulum. Thapsigargin is commonly used to stimulate Orai1/store operated Ca²⁺ influx. […] Dynamic light scattering (DLS) was used to evaluate binding of ELD607 to peptides of Orai1 extracellular loops. […] Thus, it was concluded that ELD607 interacts with Orai1.

Assay [4] concerns the target T3, peptide of Orai1's second extracellular loop (OP2).
T3 construct: Peptide corresponding to amino acids 195-234 of Orai1
T3 peptide: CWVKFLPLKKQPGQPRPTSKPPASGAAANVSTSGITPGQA
As to the kind of experiment: dynamic light scattering (Z-average).
Excerpt: as §1

T1 sequence (Q96D31 whole entry): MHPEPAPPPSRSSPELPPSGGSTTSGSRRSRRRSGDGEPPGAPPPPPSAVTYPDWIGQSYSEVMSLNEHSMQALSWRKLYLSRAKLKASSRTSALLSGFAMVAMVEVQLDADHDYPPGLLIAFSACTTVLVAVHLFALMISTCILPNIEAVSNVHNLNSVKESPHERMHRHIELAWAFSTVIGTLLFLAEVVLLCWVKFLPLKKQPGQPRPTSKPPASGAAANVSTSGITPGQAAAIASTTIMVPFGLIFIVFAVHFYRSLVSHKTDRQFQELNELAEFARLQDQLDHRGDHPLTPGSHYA

B1: ELD100 peptide (peptide)
peptide: DITLVHDIVNMLIHGL
As for B1, the “IC50 (Molar), Ca^2+ influx after Ca^2+ add back, HEK293T cells” value in assay [1] came out at 3.7e-08 Molar. Also, in assay [2], the “IC50, inhibiting store operated Ca^2+ influx in HEK293T cells” value was determined as 124 nM.

B2: ELD607 (peptide)
peptide: VHDIVNMLIRG
notes: Synthetic 11-residue peptidomimetic derived from ELD100 (H14R, deletion of positions 1-4, L16 deletion); also called ELD142-11
B2: in assay [1], the “IC50 (Molar), Ca^2+ influx after Ca^2+ add back, HEK293T cells” value was 8.1e-08 Molar. The values for the binding result in assay [3] and in assay [4] were “binds” and “no binding”, respectively. In addition, the “IC50, inhibiting store operated Ca^2+ influx in HEK293T cells” value in assay [2] is 9 nM.
